Measurements reported in patent publication US20100196361A1, “Method of inhibition of vascular development using an antibody” (DYAX CORP., priority 2003, published 2010).
Positions count from the first letter of the chain named.

Biological target: T1, human Tie1 Fc (Homo sapiens, UniProt P35590)
T1 construct: selected against the Tie1 extracellular domain fused to human Fc or to a histidine purification tag
T1 sequence (P35590 22-759 limits assumed): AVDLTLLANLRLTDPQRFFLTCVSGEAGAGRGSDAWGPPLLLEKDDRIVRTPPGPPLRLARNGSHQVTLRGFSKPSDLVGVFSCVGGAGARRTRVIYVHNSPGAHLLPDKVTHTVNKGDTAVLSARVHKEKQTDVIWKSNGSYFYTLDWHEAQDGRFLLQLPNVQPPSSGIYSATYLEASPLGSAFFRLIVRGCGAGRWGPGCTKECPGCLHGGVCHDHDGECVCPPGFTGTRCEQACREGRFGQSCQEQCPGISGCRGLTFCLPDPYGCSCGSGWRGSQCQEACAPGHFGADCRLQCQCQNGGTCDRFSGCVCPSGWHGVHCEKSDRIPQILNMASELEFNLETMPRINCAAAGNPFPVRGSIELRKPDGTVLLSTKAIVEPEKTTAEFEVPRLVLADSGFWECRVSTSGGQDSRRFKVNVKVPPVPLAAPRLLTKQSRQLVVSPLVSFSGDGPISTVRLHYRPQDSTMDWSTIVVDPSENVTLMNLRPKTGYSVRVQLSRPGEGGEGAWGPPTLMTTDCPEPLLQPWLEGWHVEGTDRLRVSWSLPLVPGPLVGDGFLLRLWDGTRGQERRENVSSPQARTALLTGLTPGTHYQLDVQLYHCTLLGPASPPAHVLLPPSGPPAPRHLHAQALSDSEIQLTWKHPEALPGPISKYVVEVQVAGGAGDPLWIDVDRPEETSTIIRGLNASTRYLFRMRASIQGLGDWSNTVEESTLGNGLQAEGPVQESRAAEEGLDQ
Assay: ELISA on recombinant Tie1-Fc
Format: binding
Conditions: soluble Fab 5 or 1 μg per 100 μl; 500 or 50 ng antigen per well
Method: To evaluate if the conversion of any of the somatic mutations in the framework of E3 back to germline residues had any effect on binding activity the soluble Fabs were produced. The soluble expression vector containing the parental E3 Fab and the germlined E3 Fab construct were grown overnight at 30° C. in 2×TY broth containing 100 μg/ml ampicillin and 2% glucose and use 4 ml of this overnight culture to inoculate 400 ml of 2×TY broth containing 100 μg/ml ampicillin and 0.1% glucose. Cells were grow at 37° C. until an OD600 of 0.8-1.0, 1 mM IPTG was added and the culture was maintained at 30° C. for 4 hours. The cultures were spun down at 4,000 rpm for 15 min at 4 C. […] Dialyze against PBS using dialysis cassettes (SLIDE-A-LYSER™ Dialysis Cassettes, MWCO 10,000, Pierce, cat. no. 66380) and determine the protein concentration from the absorbance at 280 nm assuming that a 1 mg/ml solution has an absorbance of 0.86. The quality of the preparations can be analyzed by reducing and non-reducing SDS-PAGE.
Wells of an IMMULON™ 2 HB plate coated overnight with 500 ng or 50 ng of purified recombinant human Tie1-Fc target antigen per 100 microliters 0.1 M sodium bicarbonate buffer, pH 8.5. […] After washing the wells seven times 100 microliters TMB-H2O2 solution was added to each well and the plate read at 630 nm in an ELISA.

B1: parental E3 Fab: soluble Fab fragment of the parental E3 anti-Tie1 antibody (antibody, V domains shown)
VH: EVQLLESGGGLVQPGGSLRLSCAASGFTFSMYGMVWVRQAPGKGLEWVSVISPSGGNTGYADSVKGRFTISRDNSKNTLYLQVNSLRAEDTAVYYCARAPRGYSYGYYYWGQGTLVTVSSASTKGPSVFPLAPSSKSTSGG
VL: DIQMTQSPLSLSASVGDRVTITCRASQGIGHYLAWYQQKPGKVPKLLIYTASTLQSGVPSRFSGSGSGTDFTLTINSLQPEDVATYYCQQFNSYPHTFGQGTRLDIK
- binding to recombinant human Tie1-Fc in ELISA: bound to the recombinant human Tie1-Fc target antigen

B2: germlined E3 Fab: soluble Fab of E3 with LC framework regions germlined to DPK4; LC variable SEQ ID NO:159 (antibody, V domains shown)
VH: B1 VH
VL: B1 VL with L9S, N76S, D105E
- binding to recombinant human Tie1-Fc in ELISA: bound to the recombinant human Tie1-Fc target antigen
